Patent US20170190753A1 (LABORATOIRE FRANCAIS DU FRACTIONNEMENT ET DES …, published 2017)

B1: pCEP4-1NT4-14CT20 (other)
chain: EDCNELPPRRNTEILTGSWSDQTYPEGTQAIYKCRPGYRSLGNVIMVCRKGEWVALNPLRKCQKRPCGHPGDTPFGTFTLTGGNVFEYGVKAVYTCNEGYQLLGEINYRECDTDGWTNDIPICEVVKCLPVTAPENGKIVSSAMEPDREYHFGQAVRFVCNSGYKIEGDEEMHCSDDGFWSKEKPKCVEISCKSPDVINGSPISQKIIYKENERFQYKCNMGYEYSERGDAVCTESGWRPLPSCEEKSGASGCPPPPQIPNSHNMTTTLNYRDGEKVSVLCQENYLIQEGEEITCKDGRWQSIPLCVEKIPCSQPPQIEHGTINSSRSSQESYAHGTKLSYTCEGGFRISEENETTCYMGKWSSPPQCEGLPCKSPPEISHGVVAHMSDSYQYGEEVTYKCFEGFGIDGPAIAKCLGEKWSHPPSCIKTDCLSLPSFENAIPMGEKKDVYKAGEQVTYTCATYYKMDGASNVTCINSRWTGRPTCRDTSCVNPPTVQNAYIVSRQMSKYPSGERVRYQCRSPYEMFGDEEVMCLNGNWTEPPQCKDSTGKCGPPPPIDNGDITSFPLSVYAPASSVEYQCQNLYQLEGNKRITCRNGQWSEPPKCLHPCVISREIMENYNIALRWTAKQKLYSRTGESVEFVCKRGYRLSSRSHTLRTTCWDGKLEYPTCAKRGGSGHHHHHH
B2: pCEP4-1NT4-9CT20 (other)
chain: EDCNELPPRRNTEILTGSWSDQTYPEGTQAIYKCRPGYRSLGNVIMVCRKGEWVALNPLRKCQKRPCGHPGDTPFGTFTLTGGNVFEYGVKAVYTCNEGYQLLGEINYRECDTDGWTNDIPICEVVKCLPVTAPENGKIVSSAMEPDREYHFGQAVRFVCNSGYKIEGDEEMHCSDDGFWSKEKPKCVEISCKSPDVINGSPISQKIIYKENERFQYKCNMGYEYSERGDAVCTESGWRPLPSCEEKSGASGCDIPVFMNARTKNDFTWFKLNDTLDYECHDGYESNTGSTTGSIVCGYNGWSDLPICYERECELPKIDVHLVPDRKKDQYKVGEVLKFSCKPGFTIVGPNSVQCYHFGLSPDLPICKEQVQSCGPPPELLNGNVKEKTKEEYGHSEVVEYYCNPRFLMKGPNKIQCVDGEWTTLPVCIVEESTCGDIPELEHGWAQLSSPPYYYGDSVEFNCSESFTMIGHRSITCIHGVWTQLPQCVAIDKLKKCKSSNLIILEEHLKNKKEFDHNSNIRYRCRGKEGWIHTVCINGRWDPEVNCSMAQIQLCPPPPQIPNSHNMTTTLNYRDGEKVSVLCQENYLIQEGEEITCKDGRWQSIPLCVEKIPCSQPPQIEHGTINSSRSSQESYAHGTKLSYTCEGGFRISEENETTCYMGKWSSPPQCEGLPCKSPPEISHGVVAHMSDSYQYGEEVTYKCFEGFGIDGPAIAKCLGEKWSHPPSCIKTDCLSLPSFENAIPMGEKKDVYKAGEQVTYTCATYYKMDGASNVTCINSRWTGRPTCRDTSCVNPPTVQNAYIVSRQMSKYPSGERVRYQCRSPYEMFGDEEVMCLNGNWTEPPQCKDSTGKCGPPPPIDNGDITSFPLSVYAPASSVEYQCQNLYQLEGNKRITCRNGQWSEPPKCLHPCVISREIMENYNIALRWTAKQKLYSRTGESVEFVCKRGYRLSSRSHTLRTTCWDGKLEYPTCAKRGGSGHHHHHH
B3: pCEP4-1NT4-11CT20 (other)
chain: EDCNELPPRRNTEILTGSWSDQTYPEGTQAIYKCRPGYRSLGNVIMVCRKGEWVALNPLRKCQKRPCGHPGDTPFGTFTLTGGNVFEYGVKAVYTCNEGYQLLGEINYRECDTDGWTNDIPICEVVKCLPVTAPENGKIVSSAMEPDREYHFGQAVRFVCNSGYKIEGDEEMHCSDDGFWSKEKPKCVEISCKSPDVINGSPISQKIIYKENERFQYKCNMGYEYSERGDAVCTESGWRPLPSCEEKSGASGCGPPPELLNGNVKEKTKEEYGHSEVVEYYCNPRFLMKGPNKIQCVDGEWTTLPVCIVEESTCGDIPELEHGWAQLSSPPYYYGDSVEFNCSESFTMIGHRSITCIHGVWTQLPQCVAIDKLKKCKSSNLIILEEHLKNKKEFDHNSNIRYRCRGKEGWIHTVCINGRWDPEVNCSMAQIQLCPPPPQIPNSHNMTTTLNYRDGEKVSVLCQENYLIQEGEEITCKDGRWQSIPLCVEKIPCSQPPQIEHGTINSSRSSQESYAHGTKLSYTCEGGFRISEENETTCYMGKWSSPPQCEGLPCKSPPEISHGVVAHMSDSYQYGEEVTYKCFEGFGIDGPAIAKCLGEKWSHPPSCIKTDCLSLPSFENAIPMGEKKDVYKAGEQVTYTCATYYKMDGASNVTCINSRWTGRPTCRDTSCVNPPTVQNAYIVSRQMSKYPSGERVRYQCRSPYEMFGDEEVMCLNGNWTEPPQCKDSTGKCGPPPPIDNGDITSFPLSVYAPASSVEYQCQNLYQLEGNKRITCRNGQWSEPPKCLHPCVISREIMENYNIALRWTAKQKLYSRTGESVEFVCKRGYRLSSRSHTLRTTCWDGKLEYPTCAKRGGSGHHHHHH
B4: pCEP4-1NT7-16CT20 (other)
chain: EDCNELPPRRNTEILTGSWSDQTYPEGTQAIYKCRPGYRSLGNVIMVCRKGEWVALNPLRKCQKRPCGHPGDTPFGTFTLTGGNVFEYGVKAVYTCNEGYQLLGEINYRECDTDGWTNDIPICEVVKCLPVTAPENGKIVSSAMEPDREYHFGQAVRFVCNSGYKIEGDEEMHCSDDGFWSKEKPKCVEISCKSPDVINGSPISQKIIYKENERFQYKCNMGYEYSERGDAVCTESGWRPLPSCEEKSCDNPYIPNGDYSPLRIKHRTGDEITYQCRNGFYPATRGNTAKCTSTGWIPAPRCTLKPCDYPDIKHGGLYHENMRRPYFPVAVGKYYSYYCDEHFETPSGSYWDHIHCTQDGWSPAVPCLRKCYFPYLENGYNQNYGRKFVQGKSIDVACHPGYALPKAQTTVTCMENGWSPTPRCIRVKTGASGCKSPPEISHGVVAHMSDSYQYGEEVTYKCFEGFGIDGPAIAKCLGEKWSHPPSCIKTDCLSLPSFENAIPMGEKKDVYKAGEQVTYTCATYYKMDGASNVTCINSRWTGRPTCRDTSCVNPPTVQNAYIVSRQMSKYPSGERVRYQCRSPYEMFGDEEVMCLNGNWTEPPQCKDSTGKCGPPPPIDNGDITSFPLSVYAPASSVEYQCQNLYQLEGNKRITCRNGQWSEPPKCLHPCVISREIMENYNIALRWTAKQKLYSRTGESVEFVCKRGYRLSSRSHTLRTTCWDGKLEYPTCAKRGGSGHHHHHH
For C3 convertase activity % of the control in this document: test concentration or dose not given here.

What follows are binders tested against C3 convertase complex (UniProt P01024 23-1663; P00751 260-764) (assay: cell-based or functional assay).
C3 convertase complex, sequence (P01024 23-1663, chain 1 of 2): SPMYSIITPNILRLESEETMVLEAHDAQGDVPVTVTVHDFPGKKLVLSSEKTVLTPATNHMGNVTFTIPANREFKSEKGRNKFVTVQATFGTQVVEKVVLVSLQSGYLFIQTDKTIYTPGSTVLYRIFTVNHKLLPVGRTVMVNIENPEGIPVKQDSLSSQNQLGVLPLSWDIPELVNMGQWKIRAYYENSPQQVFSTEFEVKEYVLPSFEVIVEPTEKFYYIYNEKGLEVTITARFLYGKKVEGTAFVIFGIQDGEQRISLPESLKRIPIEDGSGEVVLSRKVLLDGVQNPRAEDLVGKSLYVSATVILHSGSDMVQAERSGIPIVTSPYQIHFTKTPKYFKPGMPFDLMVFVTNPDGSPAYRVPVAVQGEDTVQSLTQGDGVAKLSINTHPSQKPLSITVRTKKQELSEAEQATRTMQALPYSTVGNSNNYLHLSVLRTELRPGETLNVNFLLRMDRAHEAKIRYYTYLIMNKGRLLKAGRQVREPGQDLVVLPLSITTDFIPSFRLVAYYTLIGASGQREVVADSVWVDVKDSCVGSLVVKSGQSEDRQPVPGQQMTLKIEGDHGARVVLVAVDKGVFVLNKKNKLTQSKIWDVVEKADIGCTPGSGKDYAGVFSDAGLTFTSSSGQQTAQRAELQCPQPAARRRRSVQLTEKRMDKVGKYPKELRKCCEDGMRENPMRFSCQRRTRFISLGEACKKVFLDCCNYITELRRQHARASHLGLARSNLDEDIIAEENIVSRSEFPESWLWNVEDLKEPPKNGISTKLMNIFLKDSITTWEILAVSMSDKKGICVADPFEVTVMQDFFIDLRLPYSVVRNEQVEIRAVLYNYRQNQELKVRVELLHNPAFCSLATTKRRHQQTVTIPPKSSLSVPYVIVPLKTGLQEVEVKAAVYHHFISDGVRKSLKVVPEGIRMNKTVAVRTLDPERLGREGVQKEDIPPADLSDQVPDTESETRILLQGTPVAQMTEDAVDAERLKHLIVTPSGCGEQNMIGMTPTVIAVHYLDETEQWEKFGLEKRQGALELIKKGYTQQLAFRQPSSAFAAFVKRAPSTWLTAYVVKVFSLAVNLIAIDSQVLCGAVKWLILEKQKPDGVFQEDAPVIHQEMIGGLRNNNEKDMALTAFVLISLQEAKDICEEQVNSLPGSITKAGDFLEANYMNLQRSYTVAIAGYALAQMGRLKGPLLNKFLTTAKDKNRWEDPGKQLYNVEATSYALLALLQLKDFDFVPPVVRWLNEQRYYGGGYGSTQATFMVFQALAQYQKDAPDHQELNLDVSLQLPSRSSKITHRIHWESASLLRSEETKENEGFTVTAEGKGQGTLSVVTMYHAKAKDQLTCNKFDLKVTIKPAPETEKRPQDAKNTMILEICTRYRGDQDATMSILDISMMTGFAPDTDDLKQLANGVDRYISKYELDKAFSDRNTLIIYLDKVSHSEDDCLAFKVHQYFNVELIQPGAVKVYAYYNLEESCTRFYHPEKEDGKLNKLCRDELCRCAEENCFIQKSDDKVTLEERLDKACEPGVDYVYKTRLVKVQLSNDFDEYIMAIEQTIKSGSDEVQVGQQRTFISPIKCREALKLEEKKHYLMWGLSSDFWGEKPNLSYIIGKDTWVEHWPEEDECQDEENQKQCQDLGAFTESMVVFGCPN
C3 convertase complex, sequence (P00751 260-764, chain 2 of 2): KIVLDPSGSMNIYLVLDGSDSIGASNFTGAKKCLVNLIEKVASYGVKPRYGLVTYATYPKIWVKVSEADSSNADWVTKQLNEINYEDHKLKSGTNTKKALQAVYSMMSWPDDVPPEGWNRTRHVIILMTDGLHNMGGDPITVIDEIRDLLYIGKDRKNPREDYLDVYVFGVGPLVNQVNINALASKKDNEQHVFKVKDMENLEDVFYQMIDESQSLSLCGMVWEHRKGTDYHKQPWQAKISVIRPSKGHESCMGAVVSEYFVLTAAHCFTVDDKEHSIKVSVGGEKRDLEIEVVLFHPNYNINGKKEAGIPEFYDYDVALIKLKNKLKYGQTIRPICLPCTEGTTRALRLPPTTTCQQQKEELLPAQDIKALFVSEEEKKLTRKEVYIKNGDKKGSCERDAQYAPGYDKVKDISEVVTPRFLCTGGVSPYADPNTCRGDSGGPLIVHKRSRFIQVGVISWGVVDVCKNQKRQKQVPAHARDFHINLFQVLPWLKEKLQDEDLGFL
In the case of B1, the “C3 convertase activity % of the control” value is reported as 15 % of the control and the “C3 convertase activity IC50” value is reported as 0.618 µg/mL.
For B2, the “C3 convertase activity % of the control” value was 18 % of the control and the “C3 convertase activity IC50” value was 0.536 µg/mL.
B3 was tested, and the “C3 convertase activity % of the control” value was 17 % of the control and the “C3 convertase activity IC50” value was 0.546 µg/mL.
With B4 the “C3 convertase activity % of the control” value was 15 % of the control and the “C3 convertase activity IC50” value was 0.442 µg/mL.
